Data published in publication PMC2779547.

Target: KcsA R64C-SL (potassium ion channel KcsA, R64C mutant, spin-labelled with MTSL) (UniProt P0A334)
Assay: PELDOR

KcsA R64C-SL (potassium ion channel KcsA, R64C mutant, spin-labelled with MTSL) (from UniProt P0A334 1-160) (natural protein)
stoichiometry N: 4
